Entries after “also recorded” stand apart in the source; their conditions may differ.
Columns and labels:
Format in all cases: cell-based
[1] = tested on: SKOV3, OVCAR3, OVCAR8, and primary ovarian tumor cells; test: EGFL6 treatment of ovarian cancer cells, total cell number
Excerpt: EGFL6 was next expressed in HEK293 cells, NIH3T3 cells, and SKOV3 ovarian cancer cells. Western blot analysis confirmed secretion of EGLF6 in both transient and stable transfectants (FIG. 2Ai, 2D) from all three cell lines. EGFL6 protein was purified to >95% purity (FIG. 2Aii) and treated ovarian cancer cells with either purified EGFL6, supernatant from EGFL6-expressing HEK293 cells, or supernatant from control transfected HEK293 cells. Purified fusion protein and supernatant from EGFL6 transfected cells had similar effects. EGFL6 treatment of SKOV3, OVCAR3, OVCAR8, and primary ovarian tumor cells was associated with a 30-40% increase in total cell number (FIG. 2B).
SKOV3, A2008, and A2780 were maintained in RPMI-1640, supplemented with 10% FBS with 1% Penicillin/Streptomycin, and cultured in humidified atmosphere of 5% CO2 at 37° C. For all in vitro cell culture experiments, isolated cells were allow to recover overnight following FACS, prior to treatment. Infantile Hemangioma Stem cells were maintained in EBM-2 medium with growth factor supplement cocktails in culture plates coated with fibronectin. For Echistatin and EGFL6 treatment, cells were pretreated with Echistatin (Sigma, 100 nM) for 24 hours prior to EGFL6 treatment. All transfections were performed using FuGene6 reagent (Promega) per company protocol. […]

SKOV3 cells = test: Cell cycle analysis (propidium iodine, FACS); settings: EGFL6 treatment 24 hrs after serum starvation
Procedure: SKOV3 cells were seeded at 5×10^5 in 6 cm culture plates, synchronized by serum starvation for 24 hrs, then treated with EGFL6 or control for 24 hrs. Cells were fixed with ice-cold alcohol, washed with PBS, and stained with propidium iodine ([…]) and RNase A (100 ug/ml) in PBS for 1 hr at 30° C. Cell cycle profile was acquired by FACS analysis and data were analyzed by Flowjo.

[2] = tested on: ALDH+ CSCs in SKOV3 cells; test: ALDH+ cell percentage and number (ALDEFLUOR FACS)
Excerpt: It has been shown that aldehyde dehydrogenase enzymatic activity (ALDH) is an excellent marker of ovarian CSCs in SKOV3 cells and primary patient samples (see, e.g., Silva, I. A., et al. Cancer Res (2011); Landen, C. N., Jr., et al. Mol Cancer Ther 9, 3186-3199 (2010); Steg, A. D., et al. Clin Cancer Res 18, 869-881 (2012); Kryczek, I., et al. Int J Cancer 130, 29-39 (2012); Deng, S., et al. PLoS ONE 5, e10277 (2010)). The impact of EGFL6 treatment on the percentage of ALDH^+ CSCs in vitro was next assessed. […] However, given the increase in total cell numbers, the absolute ALDH^+ CSC number remained unchanged (FIG. 3Aiii). […] Human ovarian cancer ascites cells were also treated with EGFL6 in a tumor sphere assay. Once again, treatment with EGLF6 was associated with a reduction in ALDH^+ cell percentages in tumor spheres (FIG. 3B).
(§1) SKOV3, A2008, and A2780 were maintained in RPMI-1640, supplemented with 10% FBS with 1% Penicillin/Streptomycin, and cultured in humidified atmosphere of 5% CO2 at 37° C. For all in vitro cell culture experiments, isolated cells were allow to recover overnight following FACS, prior to treatment. Infantile Hemangioma Stem cells were maintained in EBM-2 medium with growth factor supplement cocktails in culture plates coated with fibronectin. For Echistatin and EGFL6 treatment, cells were pretreated with Echistatin (Sigma, 100 nM) for 24 hours prior to EGFL6 treatment. All transfections were performed using FuGene6 reagent (Promega) per company protocol.
FACS assay was performed as previously described (see, e.g., Silva, I. A., et al. Cancer Res (2011)). Briefly, SKOV3 cells or primary ovarian tumor/ascetics cells were stained for ALDH using ALDEFLUOR kit per company protocol (Stem Cell Technologies). DAPI staining was used to exclude non-viable cells. For FACS cell sorting, equal number of ALDH and ALDH^(−) cells were collected for subsequent experiments.
EGFL6 monoclonal antibody producing hybridoma cells were maintained in RPMI medium supplemented with 10% FBS. For antibody purification, the cells were cultured in reduced FBS (5%). […]

[3] = tested on: phosphorylation of SHP2, ERK, FAK and SRC in SKOV3 cells; test: Western blot of EGFL6 mediated signal activation
Procedure: Lastly, EGFL6 mediated signal activation was evaluated. Integrin signaling has been reported to induce the […] of FAK, SRC and SHP2 among others. […] Phosphorylation of all of these proteins could be blocked with Echistatin.
Cellular signaling changes associated with EGFL6 was next examined. […] EGFL6 treatment was associated with increased p-SHP2 levels specifically in ALDH^+ cells (FIG. 4Ei). […] SHP2 phosphorylation could be blocked with Echistatin (FIG. 4Eiii) or an EGFL6-blocking antibody. SHP2 phosphorylation was associated with increased p-ERK levels (4Ei-iii).
as §1
EGFL6 monoclonal antibody producing hybridoma cells were maintained in RPMI medium supplemented with 10% FBS. For antibody purification, the cells were cultured in reduced FBS (5%). Culture supernatant was collected and cell debris was removed by centrifugation. EGFL6 antibody was pulled down using Protein G Agarose heeds, Fast Flow (Millipore), washed and eluded with 50 mM glycine PH.2.7. Antibody solution was immediately neutralized to PH 7.2-7.4 with Tris (Ph 9.0, final concentration 25 mM). NaCl was added to final concentration of 150 mM. EGFL6 antibody was applied at 5 μg/ml for in vitro cell treatment and 50 μg/mouse for in vivo treatment.

cellular migration = test: Transwell migration assay with EGFL6 protein as chemoattractant
ALDH+ and ALDH− cells = test: Microfluidics device migration of individual cells in an EGFL6 gradient
Excerpt: EGF factors have been reported to enhance the migration and invasion of various cell populations. The impact of EGFL6 on cellular migration was therefore assessed. […] Finally, a novel microfluidics device was used to determine the impact of EGFL6 on the migration of individual cells. To more specifically assess the impact on ovarian CSC versus progenitors, ALDH+ and ALDH− cells were sorted and loaded into individual channels of a microfluidics device in which migration could be directly monitored. EGFL6 was added to a reservoir at one side of the device to create a gradient of expression. EGFL6 had no impact on the migration of ALDH(−) cells.

[4] = increasing concentrations of EGFL6

B1: EGFL6: recombinant EGFL6-flag protein from transfected HEK293 cells, used purified or as 72 hr supernatant (protein)
chain: NAASARHHGLLASARQPGVCHYGTKLACCYGWRRNSKGVCEATCEPGCKFGECVGPNKCRCFPGYTGKTCSQDVNECGMKPRPCQHRCVNTHGSYKCFCLSGHMLMPDATCVNSRTCAMINCQYSCEDTEEGPQCLCPSSGLRLAPNGRDCLDIDECASGKVICPYNRRCVNTFGSYYCKCHIGFELQYISGRYDCIDINECTMDSHTCSHHANCFNTQGSFKCKCKQGYKGNGLRCSAIPENSVKEVLRAPGTIKDRIKKLLAHKNSMKKKAKIKNVTPEPTRTPTPKVNLQPFNYEEIVSRGGNSHGGKKGNEEKMKEGLEDEKREEKALKNDIEERSLRGDVFFPKVNEAGEFGLILVQRKALTSKLEHKDLNISVDCSFNHGICDWKQDREDDFDWNPADRDNAIGFYMAVPALAGHKKDIGRLKLLLPDLQPQSNFCLLFDYRLAGDKVGKLRVFVKNSNNALAWEKTTSEDEKWKTGKIQLYQGTDATKSIIFEAERGKGKTGEIAVDGVLLVSGLCPDSLLSVDD
B1 was tested, and the “increase in total cell number” value ([1]; EGFL6 treatment vs control supernatant) was 30-40%, the total cell numbers [1, 4] was “increasing total cell numbers” and the “decrease in the number of cells in G1 phase” value (SKOV3 cells) was roughly 20%. For the same molecule, the “number of cells in S and G2/M phases” value (SKOV3 cells) was “concomitant increase”, the “percentages of ALDH+ CSCs” value ([2]; EGFL6 treatment) was “decreasing percentages; also recorded: reduced” and the “absolute ALDH+ CSC number” value [2, 4] was “unchanged”. The p-FAK levels ([3]; EGFL6 treated SKOV3 cells) was “modest increase”, the p-SRC levels ([3]; EGFL6 treated SKOV3 cells) was “modest increase” and the p-SHP2 levels ([3]; treatment of ALDH+ SKOV3 cells) was “further increase; also recorded: increased”. For the same molecule, the p-ERK levels ([3]; treatment of ALDH+ and ALDH(−) cells) was “increase p-ERK”, the “cellular migration in transwell assay” value (cellular migration) was “increased cellular migration” and the “migration of ALDH(−) cells” value (ALDH+ and ALDH− cells) was “no impact”. The “migration of ALDH+ cells” value (ALDH+ and ALDH− cells) was “robust migration”.

Source: US9850300B2, “Compositions and methods relating to inhibiting cancer cell growth and/or proliferation” (The Regents of the University of Michigan, priority 2013, dated 2017)
